Laboratory results from patent US20240309045A1, “NLRP3 INFLAMMASOME INHIBITORY PEPTIDE FOR TREATMENT OF INFLAMMATORY DISEASES” (AJOU UNIVERSITY INDUSTRY-ACADEMIC COOPERATION FOUNDATION, priority 2021, published 2024).

Legend:
NLRP3 inflammasome [1] = target: T1, NLRP3 inflammasome (Homo sapiens, UniProt Q96P20+Q9ULZ3); test: NLRP3-mediated IL-18 secretion ELISA (LPS priming, nigericin activation); format: cell-based; settings: THP1-derived macrophages, LPS-primed, nigericin (FIG. 1E, 4B)
T1 construct: THP1-derived macrophages were primed with LPS (10 ng/ml) for 3 hours and then treated with peptides; endogenous in cells; host or cells: THP1-derived macrophages
Method: (§1) THP1-derived macrophages were seeded at a density of […] in a 96-well plate (BD Biosciences) and grown overnight. The next day, the cells were primed with LPS (Sigma-Aldrich) at a concentration of 10 ng/ml or human tumor necrosis factor alpha (TNF-α; R&D Systems, Minneapolis, Minn., USA) at a concentration of 100 ng/ml for 3 hours, and then treated with peptides at different concentrations for 1 hour. In order to activate the NLRP3 pathway, LPS-primed cells were stimulated for 2 hours with […] nigericin (Invivogen, Carlsbad, CA, USA), which is a known NLRP3 activator. After 6 hours of treatment, the secretion levels of IL-1β and IL-18 were evaluated using a Human IL-1β Uncoated ELISA Kit (Invitrogen) and a Human IL-18 ELISA kit (RayBiotech, Norcross, GA, USA), respectively. The secretion levels of IL-8 and TNF-α were analyzed using a Human IL-8 ELISA kit and a TNF-α ELISA Kit (Invitrogen), respectively. In all experiments, absorbance was analyzed at an appropriate wavelength using a microplate spectrophotometry system (Molecular Devices Inc., Silicon Valley, CA, USA).
(§2) Overall, activation of the NLRP3 inflammasome results not only in cleavage of pro-IL-1β and pro-IL-18, but also in release of active IL-1β and IL-18 and other soluble inflammatory mediators. Thus, NIP was mainly evaluated for regulatory effect on the NLPR3-mediated pathway through the assessment of IL-1β secretion. […]

NLRP3 inflammasome [2] = target: T1, NLRP3 inflammasome; test: NLRP3-mediated IL-1β secretion ELISA (LPS priming, nigericin activation); format: cell-based; settings: THP1-derived macrophages, LPS-primed, peptide 1 to 20 μM (FIG. 1E)
Method: as §1, §2

T1 sequence (Q96P20 whole entry): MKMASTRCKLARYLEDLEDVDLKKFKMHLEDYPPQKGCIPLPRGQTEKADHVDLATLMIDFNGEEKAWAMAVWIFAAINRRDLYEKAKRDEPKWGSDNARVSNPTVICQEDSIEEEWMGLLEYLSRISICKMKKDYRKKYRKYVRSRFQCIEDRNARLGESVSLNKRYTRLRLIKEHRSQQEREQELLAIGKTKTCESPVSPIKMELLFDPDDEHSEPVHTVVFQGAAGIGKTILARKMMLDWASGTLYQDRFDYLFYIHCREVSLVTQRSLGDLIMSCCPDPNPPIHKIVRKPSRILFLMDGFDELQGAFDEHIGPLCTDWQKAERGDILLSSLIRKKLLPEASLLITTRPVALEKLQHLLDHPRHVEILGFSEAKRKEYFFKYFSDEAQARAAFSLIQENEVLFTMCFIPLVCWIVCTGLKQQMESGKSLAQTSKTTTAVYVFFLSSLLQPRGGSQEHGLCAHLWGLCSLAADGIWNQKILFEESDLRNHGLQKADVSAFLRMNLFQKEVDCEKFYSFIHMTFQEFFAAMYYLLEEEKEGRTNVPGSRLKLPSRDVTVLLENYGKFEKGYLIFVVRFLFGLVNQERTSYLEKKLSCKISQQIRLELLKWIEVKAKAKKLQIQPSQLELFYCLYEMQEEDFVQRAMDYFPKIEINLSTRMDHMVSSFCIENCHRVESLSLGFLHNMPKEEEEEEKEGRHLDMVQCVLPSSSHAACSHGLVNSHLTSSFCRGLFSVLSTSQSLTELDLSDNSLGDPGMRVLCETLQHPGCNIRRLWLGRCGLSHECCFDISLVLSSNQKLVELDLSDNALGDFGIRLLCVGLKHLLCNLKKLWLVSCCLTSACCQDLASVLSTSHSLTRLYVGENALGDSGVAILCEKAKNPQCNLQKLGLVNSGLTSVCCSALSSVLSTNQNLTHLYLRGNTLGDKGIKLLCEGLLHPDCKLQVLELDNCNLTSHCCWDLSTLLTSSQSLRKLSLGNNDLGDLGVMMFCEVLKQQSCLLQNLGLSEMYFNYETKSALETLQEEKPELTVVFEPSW
T1 sequence (Q9ULZ3 whole entry): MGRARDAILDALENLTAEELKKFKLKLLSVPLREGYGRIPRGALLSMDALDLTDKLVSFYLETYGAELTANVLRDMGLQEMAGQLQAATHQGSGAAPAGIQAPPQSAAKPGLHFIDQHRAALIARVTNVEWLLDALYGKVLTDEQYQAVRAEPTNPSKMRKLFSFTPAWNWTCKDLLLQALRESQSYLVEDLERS

## DALDLTDKLVS (NLRP3/ASC-inhibitory peptide 7 (NIP7)) [evaluated fused at the N-terminus with penetratin]
NLRP3 inflammasome [1]
  Inhibition of IL-18 secretion: did not have the ability to inhibit
NLRP3 inflammasome [2]
  Inhibition of NLPR3-mediated IL-1β secretion: did not have the ability to inhibit
